Data taken from patent US20060257938A1, “Method of screening for drugs that block ligand binding to a lipid binding protein” (priority 2005, published 2006).
Numbering of substitutions follows the chain as printed. Values joined by “and” are separate entries in the source; they are usually repeats but may differ in a detail not shown here. Identical values can stand only once.

B1: 78H1, 72A (protein, listed as Rattus norvegicus)
chain: AFDGTWKVDRNENYEKFMEKMGINVVKRKLGAHDNLKLTITQEGNKFTVKESSNFRNIDVVFELGVDFAYSAADGTEHTGTWTMEGNKLVGKFKRVDNGKELIAVREISGNELIQTYTYEGVEAKRIFKKE
modifications: PEPTIDE (1)...(131) wild-type rat intestinal fatty acid binding protein
B2: 78I1, 72A (protein, listed as Rattus norvegicus)
chain: B1 chain with H78I
modifications: PEPTIDE (1)...(131) wild-type rat intestinal fatty acid binding protein
B3: 78M1, 72A (protein, listed as Rattus norvegicus)
chain: B1 chain with H78M
modifications: PEPTIDE (1)...(131) wild-type rat intestinal fatty acid binding protein
B4: 78T1, 72A (protein, listed as Rattus norvegicus)
chain: B1 chain with H78T
modifications: PEPTIDE (1)...(131) wild-type rat intestinal fatty acid binding protein
B5: 78W1, 72A (protein, listed as Rattus norvegicus)
chain: B1 chain with H78W
modifications: PEPTIDE (1)...(131) wild-type rat intestinal fatty acid binding protein
B6: 82A, 72A (protein, listed as Rattus norvegicus)
chain: B1 chain with H78L, W82A
modifications: PEPTIDE (1)...(131) wild-type rat intestinal fatty acid binding protein
B7: 82A1, 72A (protein, listed as Rattus norvegicus)
chain: B1 chain with H78L, W82A
modifications: PEPTIDE (1)...(131) wild-type rat intestinal fatty acid binding protein
B8: 82F1, 72A (protein, listed as Rattus norvegicus)
chain: B1 chain with H78L, W82F
modifications: PEPTIDE (1)...(131) wild-type rat intestinal fatty acid binding protein
B9: 104I1, 72A (protein, listed as Rattus norvegicus)
chain: B1 chain with H78L, A104I
modifications: PEPTIDE (1)...(131) wild-type rat intestinal fatty acid binding protein
B10: 82I3, 72A (protein, listed as Rattus norvegicus)
chain: B1 chain with H78L, W82I
modifications: PEPTIDE (1)...(131) wild-type rat intestinal fatty acid binding protein
B11: 82M1, 72A (protein, listed as Rattus norvegicus)
chain: B1 chain with H78L, W82M
modifications: PEPTIDE (1)...(131) wild-type rat intestinal fatty acid binding protein
B12: 82V1, 72A (protein, listed as Rattus norvegicus)
chain: B1 chain with H78L, W82V
modifications: PEPTIDE (1)...(131) wild-type rat intestinal fatty acid binding protein
B13: 82Y2, 72A (protein, listed as Rattus norvegicus)
chain: B1 chain with H78L, W82Y
modifications: PEPTIDE (1)...(131) wild-type rat intestinal fatty acid binding protein
B14: 91A, 72A (protein, listed as Rattus norvegicus)
chain: B1 chain with H78L, G91A
modifications: PEPTIDE (1)...(131) wild-type rat intestinal fatty acid binding protein
B15: 93L, 72A (protein, listed as Rattus norvegicus)
chain: B1 chain with H78L, F93L
modifications: PEPTIDE (1)...(131) wild-type rat intestinal fatty acid binding protein
B16: 93M, 72A (protein, listed as Rattus norvegicus)
chain: B1 chain with H78L, F93M
modifications: PEPTIDE (1)...(131) wild-type rat intestinal fatty acid binding protein
B17: 104L1, 72A (protein, listed as Rattus norvegicus)
chain: B1 chain with H78L, A104L
modifications: PEPTIDE (1)...(131) wild-type rat intestinal fatty acid binding protein
B18: 104N1, 72A (protein, listed as Rattus norvegicus)
chain: B1 chain with H78L, A104N
modifications: PEPTIDE (1)...(131) wild-type rat intestinal fatty acid binding protein
B19: 104R, 72A (protein, listed as Rattus norvegicus)
chain: B1 chain with H78L, A104R
modifications: PEPTIDE (1)...(131) wild-type rat intestinal fatty acid binding protein
B20: 104R1, 72A (protein, listed as Rattus norvegicus)
chain: B1 chain with H78L, A104R
modifications: PEPTIDE (1)...(131) wild-type rat intestinal fatty acid binding protein
B21: 104S2, 72A (protein, listed as Rattus norvegicus)
chain: B1 chain with H78L, A104S
modifications: PEPTIDE (1)...(131) wild-type rat intestinal fatty acid binding protein
B22: 104T1, 72A (protein, listed as Rattus norvegicus)
chain: B1 chain with H78L, A104T
modifications: PEPTIDE (1)...(131) wild-type rat intestinal fatty acid binding protein
B23: 104V1, 72A (protein, listed as Rattus norvegicus)
chain: B1 chain with H78L, A104V
modifications: PEPTIDE (1)...(131) wild-type rat intestinal fatty acid binding protein

Test: Probe fluorescence ratio response to linolenic acid relative to ADIFAB2
Assay type: binding
Settings: response relative to ADIFAB2
Summary of the method: (§1)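 Each fatty acid's response was expressed relative to ADIFAB2, the rI-FABP-L72A probe, as ΔR/ΔRreference. ΔR is the change in the background-corrected two-wavelength intensity ratio R=Fλ1/Fλ2 from its analyte-free baseline R0. Emission was read near about 420-480 nm for unbound and about 495-580 nm for FFA-bound probe.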

Row | Molecule | DR/DR LNA
1 | B1 | 1.26
2 | B2 | 1.66
3 | B3 | 1.50
4 | B4 | 1.20
5 | B5 | 0.53
6 | B6 | 1.56
7 | B7 | 0.66
8 | B8 | 0.76
9 | B9 | 0.30
10 | B10 | 0.45
11 | B11 | 0.75
12 | B12 | 0.76
13 | B13 | 1.57
14 | B14 | 0.91
15 | B15 | 0.81 and 0.680
16 | B16 | 1.19
17 | B17 | 0.42
18 | B18 | 1.06
19 | B19 | 0.96 and 0.904
20 | B20 | 1.13
21 | B21 | 1.54
22 | B22 | 1.07
23 | B23 | 0.73

Test: Probe fluorescence ratio response to palmitic acid relative to ADIFAB2
Assay type: binding
Settings: response relative to ADIFAB2
Summary of the method: as §1

Row | Molecule | DR/DR PA
24 | B1 | 0.57
25 | B2 | 0.52
26 | B3 | 0.92
27 | B4 | 0.54
28 | B5 | 0.29
29 | B6 | 0.84
30 | B7 | 0.26
31 | B8 | 0.41
32 | B9 | 0.23
33 | B10 | 0.36
34 | B11 | 0.54
35 | B12 | 0.48
36 | B13 | 0.88
37 | B14 | 0.80
38 | B15 | 0.62 and 0.560
39 | B16 | 0.75
40 | B17 | 0.31
41 | B18 | 0.52
42 | B19 | 0.52 and 0.791
43 | B20 | 1.00
44 | B21 | 1.57
45 | B22 | 0.99
46 | B23 | 0.63

Test: Probe fluorescence ratio response to arachidonic acid relative to ADIFAB2
Assay type: binding
Settings: Arachidonic acid; response relative to ADIFAB2
Summary of the method: as §1

Row | Molecule | DR/DR AA
47 | B1 | 1.23
48 | B2 | 1.27
49 | B3 | 1.39
50 | B4 | 1.07
51 | B5 | 0.49
52 | B6 | 1.55
53 | B7 | 0.73
54 | B8 | 0.68
55 | B10 | 0.67
56 | B11 | 0.97
57 | B12 | 0.86
58 | B13 | 0.65
59 | B14 | 0.86
60 | B15 | 0.36
61 | B16 | 0.93

Same assay, conditions: arachidonic acid; response relative to ADIFAB2

Row | Molecule | DR/DR AA
62 | B9 | 0.28
63 | B15 | 0.680
64 | B17 | 0.38
65 | B18 | 1.14
66 | B19 | 1.18 and 1.075
67 | B20 | 1.14
68 | B21 | 1.64
69 | B22 | 1.01
70 | B23 | 0.63

Test: Probe fluorescence ratio response to linoleic acid relative to ADIFAB2
Assay type: binding
Settings: response relative to ADIFAB2
Summary of the method: as §1

Row | Molecule | DR/DR LA
71 | B1 | 1.28
72 | B2 | 1.11
73 | B3 | 1.44
74 | B4 | 1.25
75 | B5 | 0.57
76 | B6 | 1.67
77 | B7 | 0.78
78 | B8 | 1.08
79 | B9 | 0.30
80 | B10 | 0.52
81 | B11 | 0.94
82 | B12 | 0.74
83 | B13 | 1.53
84 | B14 | 0.83
85 | B15 | 1.03 and 0.670
86 | B16 | 1.28
87 | B17 | 0.39
88 | B18 | 0.67
89 | B19 | 0.93 and 0.962
90 | B20 | 1.22
91 | B21 | 1.71
92 | B22 | 1.16
93 | B23 | 0.73

Test: Probe fluorescence ratio response to oleic acid relative to ADIFAB2
Assay type: binding
Settings: response relative to ADIFAB2
Summary of the method: as §1

Row | Molecule | DR/DR OA
94 | B1 | 1.13
95 | B2 | 0.93
96 | B3 | 1.44
97 | B4 | 1.08
98 | B5 | 0.53
99 | B6 | 1.53
100 | B7 | 0.80
101 | B8 | 0.78
102 | B9 | 0.31
103 | B10 | 0.54
104 | B11 | 0.92
105 | B12 | 0.65
106 | B13 | 1.53
107 | B14 | 0.85
108 | B15 | 1.05 and 0.770
109 | B16 | 1.24
110 | B17 | 0.48
111 | B18 | 0.71
112 | B19 | 0.88 and 0.957
113 | B20 | 1.20
114 | B21 | 1.66
115 | B22 | 1.10
116 | B23 | 0.76
